From IntAct's records for PubMed 24076655 come the findings set out here.

B1: E3 ubiquitin-protein ligase ARIH2 (Homo sapiens), O95376 (parent)
chain: MSVDMNSQGSDSNEEDYDPNCEEEEEEEEDDPGDIEDYYVGVASDVEQQGADAFDPEEYQFTCLTYKESEGALNEHMTSLASVLKVSHSVAKLILVNFHWQVSEILDRYKSNSAQLLVEARVQPNPSKHVPTSHPPHHCAVCMQFVRKENLLSLACQHQFCRSCWEQHCSVLVKDGVGVGVSCMAQDCPLRTPEDFVFPLLPNEELREKYRRYLFRDYVESHYQLQLCPGADCPMVIRVQEPRARRVQCNRCNEVFCFKCRQMYHAPTDCATIRKWLTKCADDSETANYISAHTKDCPKCNICIEKNGGCNHMQCSKCKHDFCWMCLGDWKTHGSEYYECSRYKENPDIVNQSQQAQAREALKKYLFYFERWENHNKSLQLEAQTYQRIHEKIQERVMNNLGTWIDWQYLQNAAKLLAKCRYTLQYTYPYAYYMESGPRKKLFEYQQAQLEAEIENLSWKVERADSYDRGDLENQMHIAEQRRRTLLKDFHDT

The first test covers variants of B1. The following applies: with cul5_human CUL5, Q93034.
Sequence of cul5_human CUL5, Q93034 (Q93034 whole entry): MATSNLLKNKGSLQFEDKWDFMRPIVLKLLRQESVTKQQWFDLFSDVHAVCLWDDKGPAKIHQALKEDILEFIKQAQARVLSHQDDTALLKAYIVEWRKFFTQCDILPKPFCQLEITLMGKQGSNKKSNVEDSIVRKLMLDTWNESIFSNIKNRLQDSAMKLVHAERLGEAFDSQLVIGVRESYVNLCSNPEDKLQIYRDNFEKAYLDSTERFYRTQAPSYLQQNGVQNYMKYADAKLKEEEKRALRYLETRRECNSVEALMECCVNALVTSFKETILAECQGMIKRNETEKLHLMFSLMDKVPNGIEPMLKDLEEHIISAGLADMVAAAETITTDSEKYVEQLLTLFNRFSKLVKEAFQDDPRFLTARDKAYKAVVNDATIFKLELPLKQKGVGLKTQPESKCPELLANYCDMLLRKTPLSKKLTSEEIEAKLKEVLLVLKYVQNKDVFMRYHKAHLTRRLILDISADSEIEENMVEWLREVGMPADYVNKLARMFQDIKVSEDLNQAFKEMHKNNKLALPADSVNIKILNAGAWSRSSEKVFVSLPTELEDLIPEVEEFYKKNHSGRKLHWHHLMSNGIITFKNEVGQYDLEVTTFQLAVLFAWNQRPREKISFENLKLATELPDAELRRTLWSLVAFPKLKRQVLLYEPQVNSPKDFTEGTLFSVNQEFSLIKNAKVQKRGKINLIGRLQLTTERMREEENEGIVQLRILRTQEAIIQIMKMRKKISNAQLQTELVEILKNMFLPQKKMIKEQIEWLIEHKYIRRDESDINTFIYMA
Consider MSVDMNSQGSDSNEEDYDPNCEEEEEEEEDDPGDIEDYYVGVASDVEQQGADAFDPEEYQFTCLTYKESEGALNEHMTSLASVLKVSHSVAKLILVNFHWQVSEILDRYKSNSAQLLVEARVQPNPSKHVPTSHPPHHCAVCMQFVRKENLLSLACQHQFCRSCWEQHCSVLVKDGVGVGVSCMAQDCPLRTPEDFVFPLLPNEELREKYRRYLFRDYVESHYQLQLCPGADCPMVIRVQEPRARRVQCNRCNEVFCFKCRQMYHAPTDCATIRKWLTKCADDSETANYISAHTKDCPKCNICIEKNGGCNHMQCSKAKHDFCWMCLGDWKTHGSEYYECSRYKENPDIVNQSQQAQAREALKKYLFYFERWENHNKSLQLEAQTYQRIHEKIQERVMNNLGTWIDWQYLQNAAKLLAKCRYTLQYTYPYAYYMESGPRKKLFEYQQAQLEAEIENLSWKVERADSYDRGDLENQMHIAEQRRRTLLKDFHDT [C318A], for which the “effect of a mutation on the interaction” value is given as “increasing interaction”.

A further test covers variants of B1. The settings on record: with cul5_human CUL5, Q93034. This is another data set of the same source.
In the case of MSVDMNSQGSDSNEEDYDPNCEEEEEEEEDDPGDIEDYYVGVASDVEQQGADAFDPEEYQFTCLTYKESEGALNEHMTSLASVLKVSHSVAKLILVNFHWQVSEILDRYKSNSAQLLVEARVQPNPSKHVPTSHPPHHCAVCMQFVRKENLLSLACQHQFCRSCWEQHCSVLVKDGVGVGVSCMAQDCPLRTPEDFVFPLLPNEELREKYRRYLFRDYVESHYQLQLCPGADCPMVIRVQEPRARRVQCNRCNEVFCFKCRQMYHAPTDCATIRKWLTKCADDSETANYISAHTKDCPKCNICIEKNGGSNHMQCSKCKHDFCWMCLGDWKTHGSEYYECSRYKENPDIVNQSQQAQAREALKKYLFYFERWENHNKSLQLEAQTYQRIHEKIQERVMNNLGTWIDWQYLQNAAKLLAKCRYTLQYTYPYAYYMESGPRKKLFEYQQAQLEAEIENLSWKVERADSYDRGDLENQMHIAEQRRRTLLKDFHDT [C310S], the “effect of a mutation on the interaction” value is “increasing interaction”.

The variants in a further test derive from B1. The following applies: with cul5_human CUL5, Q93034. This is another data set of the same source.
MSVDMNSQGSDSNEEDYDPNCEEEEEEEEDDPGDIEDYYVGVASDVEQQGADAFDPEEYQFTCLTYKESEGALNEHMTSLASVLKVSHSVAKLILVNFHWQVSEILDRYKSNSAQLLVEARVQPNPSKHVPTSHPPHHCAVCMQFVRKENLLSLACQHQFCRSCWEQHCSVLVKDGVGVGVSCMAQDCPLRTPEDFVFPLLPNEELREKYRRYLFRDYVESHYQLQLCPGADCPMVIRVQEPRARRVQCNRCNEVFCFKCRQMYHAPTDCATIRKWLTKCADDSETANYISAHTKDCPKCNICIEKNGGANHMQCSKCKHDFCWMCLGDWKTHGSEYYECSRYKENPDIVNQSQQAQAREALKKYLFYFERWENHNKSLQLEAQTYQRIHEKIQERVMNNLGTWIDWQYLQNAAKLLAKCRYTLQYTYPYAYYMESGPRKKLFEYQQAQLEAEIENLSWKVERADSYDRGDLENQMHIAEQRRRTLLKDFHDT [C310A]: the “effect of a mutation on the interaction” value is “increasing interaction”.

A further test covers variants of B1. The following applies: with cul5_human CUL5, Q93034. This is another data set of the same source.
On to MSVDMNSQGSDSNEEDYDPNCEEEEEEEEDDPGDIEDYYVGVASDVEQQGADAFDPEEYQFTCLTYKESEGALNEHMTSLASVLKVSHSVAKLILVNFHAQVSEILDRYKSNSAQLLVEARVQPNPSKHVPTSHPPHHCAVCMQFVRKENLLSLACQHQFCRSCWEQHCSVLVKDGVGVGVSCMAQDCPLRTPEDFVFPLLPNEELREKYRRYLFRDYVESHYQLQLCPGADCPMVIRVQEPRARRVQCNRCNEVFCFKCRQMYHAPTDCATIRKWLTKCADDSETANYISAHTKDCPKCNICIEKNGGCNHMQCSKCKHDFCWMCLGDWKTHGSEYYECSRYKENPDIVNQSQQAQAREALKKYLFYFERWENHNKSLQLEAQTYQRIHEKIQERVMNNLGTWIDWQYLQNAAKLLAKCRYTLQYTYPYAYYMESGPRKKLFEYQQAQLEAEIENLSWKVERADSYDRGDLENQMHIAEQRRRTLLKDFHDT [W100A], for which the “effect of a mutation on the interaction” value is “decreasing interaction”.

Variants of B1 are the subject of the next test. The following applies: with cul5_human CUL5, Q93034. The source holds these as a separate data set.
As for MSVDMNSQGSDSNEEDYDPNCEEEEEEEEDDPGDIEDYYVGVASDVEQQGADAFDPEEYQFTCLTYKESEGALNEHMTSLASVLKVSHSVAKLILVNFHWQVSEILDRYKSNSAQLLVEARVQPNPSKHVPTSHPPHHCAVCMQFVRKENLLSLACQHQFCRSCWEQHCSVLVKDGVGVGVSCMAQDCPLRTPEDFVFPLLPNEELREKYRRYLFRDYVESHYQLQLCPGADCPMVIRVQEPRARRVQCNRCNEVFCFKCRQMYHAPTDCATIRKWLTKCADDSETANYISAHTKDCPKANICIEKNGGCNHMQCSKCKHDFCWMCLGDWKTHGSEYYECSRYKENPDIVNQSQQAQAREALKKYLFYFERWENHNKSLQLEAQTYQRIHEKIQERVMNNLGTWIDWQYLQNAAKLLAKCRYTLQYTYPYAYYMESGPRKKLFEYQQAQLEAEIENLSWKVERADSYDRGDLENQMHIAEQRRRTLLKDFHDT [C300A], the “effect of a mutation on the interaction” value was “increasing interaction”.

Another test covers variants of B1. The following applies: with cul5_human CUL5, Q93034. The source holds these as a separate data set.
For MSVDMNSQGSDSNEEDYDPNCEEEEEEEEDDPGDIEDYYVGVASDVEQQGADAFDPEEYQFTCLTYKESEGALNEHMTSLASVAKASHSVAKLILVNFHAQVSEILDRYKSNSAQLLVEARVQPNPSKHVPTSHPPHHCAVCMQFVRKENLLSLACQHQFCRSCWEQHCSVLVKDGVGVGVSCMAQDCPLRTPEDFVFPLLPNEELREKYRRYLFRDYVESHYQLQLCPGADCPMVIRVQEPRARRVQCNRCNEVFCFKCRQMYHAPTDCATIRKWLTKCADDSETANYISAHTKDCPKCNICIEKNGGCNHMQCSKCKHDFCWMCLGDWKTHGSEYYECSRYKENPDIVNQSQQAQAREALKKYLFYFERWENHNKSLQLEAQTYQRIHEKIQERVMNNLGTWIDWQYLQNAAKLLAKCRYTLQYTYPYAYYMESGPRKKLFEYQQAQLEAEIENLSWKVERADSYDRGDLENQMHIAEQRRRTLLKDFHDT [L84A;V86A;W100A], the “effect of a mutation on the interaction” value was “decreasing interaction”.

In a further test the parent is B1. The following applies: with ub2l3_human UBE2L3, P68036.
For the variant MSVDMNSQGSDSNEEDYDPNCEEEEEEEEDDPGDIEDYYVGVASDVEQQGADAFDPEEYQFTCLTYKESEGALNEHMTSLASVLKVSHSVAKLILVNFHWQVSEILDRYKSNSAQLLVEARVQPNPSKHVPTSHPPHHCAVCMQFVRKENLLSLACQAQFCRSCWEQHCSVLVKDGVGVGVSCMAQDCPLRTPEDFVFPLLPNEELREKYRRYLFRDYVESHYQLQLCPGADCPMVIRVQEPRARRVQCNRCNEVFCFKCRQMYHAPTDCATIRKWLTKCADDSETANYISAHTKDCPKCNICIEKNGGCNHMQCSKCKHDFCWMCLGDWKTHGSEYYECSRYKENPDIVNQSQQAQAREALKKYLFYFERWENHNKSLQLEAQTYQRIHEKIQERVMNNLGTWIDWQYLQNAAKLLAKCRYTLQYTYPYAYYMESGPRKKLFEYQQAQLEAEIENLSWKVERADSYDRGDLENQMHIAEQRRRTLLKDFHDT [H158A], the “effect of a mutation on the interaction” value is reported as “disrupting interaction”.
